Our source for the Kd values is article PMC3154745.

Assay [1] addresses PIWI peptide with HP2 pentamer, N-terminal fluorescein (D. melanogaster). In words: fluorescence polarisation. Background: In fluorescence polarisation assays a small probe gives low polarisation when free and higher when bound to something large.
Assay [2] has as its target HP2 peptide with PIWI pentamer, N-terminal fluorescein (D. melanogaster). The assay can be described thus: fluorescence polarisation.
Assay [3] concerns the target T1, Full length HP1a, pET11a construct (AUC) (D. melanogaster), P05205.
T1 chain: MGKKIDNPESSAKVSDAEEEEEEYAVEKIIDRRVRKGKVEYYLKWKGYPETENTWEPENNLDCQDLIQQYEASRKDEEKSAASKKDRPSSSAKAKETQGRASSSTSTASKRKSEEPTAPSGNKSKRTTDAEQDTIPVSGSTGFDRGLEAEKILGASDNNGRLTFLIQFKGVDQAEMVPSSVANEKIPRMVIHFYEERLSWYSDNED
The assay can be described thus: AUC. As to conditions: remark: other sources report otherwise.

B1: HP1a-CSD (residues 131-206), wild type (domain or fragment)
chain: EQDTIPVSGSTGFDRGLEAEKILGASDNNGRLTFLIQFKGVDQAEMVPSSVANEKIPRMVIHFYEERLSWYSDNED
The term Kd denotes a measure of binding affinity in units of concentration. Higher therefore signals a looser complex. Regarding B1, the results for the Kd in assay [1] and in assay [2] were 21.3 µM and 990 nM, respectively.

B2: Full length HP1a, pET11a construct (AUC), P05205 1-206 (natural protein)
chain: T1 chain
With B2, in assay [3], the Kd was found to be 1400 nM.
